{"source": "patent US20200297764A1", "about": "(Memorial Sloan Kettering, published 2020)", "key": {"[1]": {"target": "CD33 on human CD33(+) cells (human, UniProt P20138 18-364)", "sequence (P20138 18-364)": "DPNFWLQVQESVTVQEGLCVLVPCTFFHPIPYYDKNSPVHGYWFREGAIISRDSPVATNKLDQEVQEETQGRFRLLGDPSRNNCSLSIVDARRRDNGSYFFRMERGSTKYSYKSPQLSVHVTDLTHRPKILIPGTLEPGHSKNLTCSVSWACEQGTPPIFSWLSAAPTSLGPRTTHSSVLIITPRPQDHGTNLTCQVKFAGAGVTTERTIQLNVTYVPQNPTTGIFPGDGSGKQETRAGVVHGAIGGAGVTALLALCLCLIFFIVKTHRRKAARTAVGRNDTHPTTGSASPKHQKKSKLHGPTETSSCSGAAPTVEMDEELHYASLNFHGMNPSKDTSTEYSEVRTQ", "assay": "cell-based or functional assay"}, "CD3 on activated T cells": {"target": "T1, CD3 on activated T cells (human, UniProt P07766 23-207)", "T1 construct": "whole, on cells; CD3 complex on cells; the rest of the complex is not described; also called CD3 receptor", "T1 sequence (P07766 23-207)": "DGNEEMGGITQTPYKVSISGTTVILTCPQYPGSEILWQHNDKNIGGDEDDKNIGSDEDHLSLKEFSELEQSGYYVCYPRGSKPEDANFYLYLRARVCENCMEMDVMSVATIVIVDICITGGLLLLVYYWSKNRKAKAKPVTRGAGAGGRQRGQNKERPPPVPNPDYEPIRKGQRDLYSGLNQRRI", "assay": "flow cytometry on activated T cells, 4 C, secondary antibody, MFI", "procedure": "FIG. 13 depicts binding properties of an exemplary CD33-CD3 IgG-scFv (BsAb) to CD33 and CD3. (A) MOLM13 cells were reacted for 30 min at 4 C.° using decreasing doses of hM195 (anti-CD33 IgG), the heterodimeric BsAb, and an exemplary CD33-CD3 IgG-scFv. Cells were washed and immunostained with a fluorochrome-conjugated secondary antibody and mean fluorescence intensity (MFI) assayed by flow cytometry. (B) MOLM13 cells were reacted for 30 min, 4 h or 24 h at 37 C.° or 4 C.° with 1 μg/ml of hM195 (anti-CD33 IgG), the heterodimeric IgG BsAb, and exemplary CD33-CD3 IgG-scFv. Cells were washed and immunostained with a fluorochrome-conjugated secondary antibody at 4 C.°. After washing the unbound antibody, MFI was analyzed by flow cytometry. (C) Activated T cells were reacted for 30 min at 4 C.° with decreasing doses of hOKT3 (anti-CD3 IgG), the heterodimeric BsAb, and exemplary CD33-CD3 IgG-scFv. Cells were washed and immunostained with a fluorochrome-conjugated secondary antibody and MFI analyzed measured by flow cytometry."}}}
{"binder": "CD33-BsAb (BiClone 133), exemplary CD33-CD3 IgG-scFv bispecific antibody agent (bispecific antibody, IgG-scFv format, tetravalent (2+2): two arms to CD33 and two to CD3; also called CD33-specific BsAb; anti-CD33 BsAb) heavy: not shown light: EIVLTQSPATLSVSLGERATISCRASESVDNYGISFMNWFQQKPGQPPRLLIYAASNQGSGVPARFSGSGPGTDFTLTISSMEPEDFAMYFCQQSKEVPWTFGGGTKLEIKRTVAAPSVFIFPPSDEQLKSGTASVVCLLNNFYPREAKVQWKVDNALQSGNSQESVTEQDSKDSTYSLSSTLTLSKADYEKHKVYACEVTHQGLSSPVTKSFNRGECTSGGGGSGGGGSGGGGSQVQLVQSGGGVVQPGRSLRLSCKASGYTFTRYTMHWVRQAPGKCLEWIGYINPSRGYTNYNQKFKDRFTISRDNSKNTAFLQMDSLRPEDTGVYFCARYYDDHYSLDYWGQGTPVTVSSGGGGSGGGGSGGGGSGGGGSGGGGSGGGGSDIQMTQSPSSLSASVGDRVTITCSASSSVSYMNWYQQTPGKAPKRWIYDTSKLASGVPSRFSGSGSGTDYTFTISSLQPEDIATYYCQQWSSNPFTFGCGTKLQITR", "values": [{"measurement": "EC50 of T cell cytotoxicity (lysis of MOLM13 cells)", "setting": "[1]", "value": 2.4, "unit": "pM"}, {"measurement": "EC50 of T cell cytotoxicity, 4-hour 51Cr release assay, HL60 AML cells", "setting": "[1]", "value": 1.1, "unit": "pM"}, {"measurement": "TDCC potency, fold against the heterodimer, 4 h chromium release assay, THP1 and MOLM13 cells", "setting": "[1]", "value": 12, "unit": "fold"}, {"measurement": "fold weaker binding (against heterodimer)", "setting": "CD3 on activated T cells", "value": 2.5, "unit": "fold"}, {"measurement": "fold weaker binding (against huOKT3)", "setting": "CD3 on activated T cells", "value": 27, "unit": "fold"}]}
